This test concerns the target HLA-DR1 on transfected murine fibroblasts (DAP.3-DR1) (human). The test can be described thus: radioligand binding.

As usually defined, the Kd is a measure of binding affinity in units of concentration. Lower therefore signals a tighter complex.

For the substance “staphylococcal enterotoxin B (from UniProt P01552 28-266) (natural protein)”, the Kd was 141 nM.
